From US20210179726A1 (DINGFU BIOTARGET, published 2021)
Numbering of substitutions follows the chain as printed.

Experiments:
hCD27-muFc [1] = target: T1, hCD27-muFc (human; mouse, UniProt P26842 20-192); assay: ELISA, plate coated with hCD27-muFc, Test 2
T1 construct: range 1-192; Secreted from HEK293, Protein A purified; not shown: mouse IgG1-Fc (muFc), residues 98 to 324 of UniProt P01868
T1 sequence (looked up): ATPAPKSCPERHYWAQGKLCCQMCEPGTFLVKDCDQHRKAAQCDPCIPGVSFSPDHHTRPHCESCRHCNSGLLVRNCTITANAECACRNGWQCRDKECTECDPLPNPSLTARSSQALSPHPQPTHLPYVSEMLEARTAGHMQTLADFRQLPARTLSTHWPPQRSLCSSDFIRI
Method: (§1) The ELISA plate was coated with 2 μg/ml hCD27-muFc, 100 μl/well and incubated at 4° C. overnight. Then it was washed once with 10 mM, pH 7.4 PBS/Tween (0.05%), blocked with PBST containing 5% skimmed milk powder and incubated at 37° C. for 2 h. After washing the plate for 4 times, the humanized antibodies were added and incubated at 37° C. for 40 min, then it was washed for 4 times. Anti-human IgG-HRP-conjugated secondary antibody (Sigma, Cat #A0170-1M) was added and incubated at 37° C. for 40 min. After washing, the plate was developed with TMB substrate and spectrophotometric analysis was performed at OD₄₅₀. In FIGS. 5A-5B, each curve represents the binding result obtained for one of the humanized antibodies. From the results, it can be seen that all these humanized antibodies could bind to human CD27.

[2] = target: T2, hCD137-EGFP on HEK293 cells (human, UniProt Q07011 24-255); assay: FACS dot plot on CD137-EGFP HEK293 cells, anti-human Ig-APC secondary
T2 construct: EGFP fusion expressed on transfected HEK293 cells; also called human CD137
T2 sequence (Q07011 24-255): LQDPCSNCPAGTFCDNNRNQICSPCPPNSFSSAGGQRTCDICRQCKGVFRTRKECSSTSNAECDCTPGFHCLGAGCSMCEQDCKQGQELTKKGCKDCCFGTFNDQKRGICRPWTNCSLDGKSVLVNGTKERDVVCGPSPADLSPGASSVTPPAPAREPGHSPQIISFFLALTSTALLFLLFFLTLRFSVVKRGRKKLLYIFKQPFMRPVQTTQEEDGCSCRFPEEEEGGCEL
Method: (§2) The hCD137-EGFP, hOX40-EGFP and hGITR-EGFP cells as described in Example 1 were washed twice in PBS, 10 μg/ml of each chimeric antibody as prepared in Example 3 (m2E7, m2B8, m4H3, m3E7, m1A8, m4G1, m2G3, m2F11 and m3B8) was added to each type of cells and incubated at 4° C. for 30 min. Then it was washed twice with PBS, anti-human Ig-APC (Jackson ImmunoResearch Laboratories, Cat #109-135-098) was added and were incubated at 4° C. for 30 min, washed twice with PBS and resuspended in 300 μl PBS. In FIG. 2, NC represents negative control (PBS), a-hlg-APC represents secondary antibody only, the other panels represent results obtained with each of the corresponding clone, respectively.

[3] = target: T3, hCD27-EGFP on HEK293 cells (human, UniProt P26842 20-260); assay: FACS titration on CD27-EGFP HEK293 cells, 8 three-fold dilutions from 20 µg/ml, anti-human Ig-APC secondary, MFI; table drawn under the plot, unit from the x axis; no upper plateau reached
T3 construct: EGFP fusion expressed on transfected HEK293 cells; also called CD27-EGFP cells; cell surface CD27
T3 sequence (looked up): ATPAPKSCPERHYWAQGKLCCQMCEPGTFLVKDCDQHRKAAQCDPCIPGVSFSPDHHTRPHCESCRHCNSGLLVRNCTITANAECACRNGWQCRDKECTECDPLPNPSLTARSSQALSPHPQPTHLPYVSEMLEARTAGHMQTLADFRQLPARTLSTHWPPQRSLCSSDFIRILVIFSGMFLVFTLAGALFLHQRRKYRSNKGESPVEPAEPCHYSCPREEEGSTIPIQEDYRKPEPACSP
Method: Based on the above results of ELISA, 7 humanized antibodies were selected to examine their affinities to cell surface CD27. Briefly, 5×10⁵ CD27-EGFP cells prepared in Example 1 were washed twice in PBS, each of the humanized antibodies (d16647, d12996, d9419, 14822, 9424, d14822, d12674) was added. The antibodies were subjected to 3-fold serial dilution, starting from 20 μg/ml, to obtain 8 gradient dilutions for each antibody. The antibodies and the cells were incubated at 4° C. for 30 min. Then, it was washed twice with PBS, anti-human Ig-APC (Jackson ImmunoResearch Laboratories, Cat #109-135-098) was added, and incubated at 4° C. for 30 min, washed twice with PBS and resuspended in 300 μl PBS. Flow cytometry was then performed, and the results are shown in FIG. 6. m2F11 was used as a control.

hCD27-muFc [4] = target: T1, hCD27-muFc; assay: BLI (Octet K2), antibody on Protein A biosensor, hCD27-muFc in solution
Method: Using the BLI method, each humanized antibody was immobilized on a Protein A biosensor at a concentration of 10 μg/ml, while hCD27-muFc was subjected to 2-fold serial dilution, starting from 100 nM, to obtain 5 gradient dilutions for each antibody. The reaction plate was placed on the Octet K2 instrument. The parameters were set to Baseline 70 s, Association 80 s, Dissociation 300 s, Baseline 260 s, Loading 40 s, and Custom 5 s.

[5] = target: T4, hGITR-EGFP on HEK293 cells (human, UniProt Q9Y5U5 26-241); assay: FACS on hGITR-EGFP HEK293 cells
T4 construct: EGFP fusion expressed on transfected HEK293 cells; also called human GITR
T4 sequence (looked up): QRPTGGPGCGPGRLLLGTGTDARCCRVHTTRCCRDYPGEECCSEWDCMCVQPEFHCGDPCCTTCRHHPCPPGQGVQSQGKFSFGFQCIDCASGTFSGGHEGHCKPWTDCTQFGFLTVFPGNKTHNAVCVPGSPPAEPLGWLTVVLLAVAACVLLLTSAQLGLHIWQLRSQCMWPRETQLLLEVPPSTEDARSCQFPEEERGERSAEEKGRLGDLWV
Method: as §2

[6] = target: T5, hOX40-EGFP on HEK293 cells (human, UniProt P43489 29-277); assay: FACS dot plot on OX40-EGFP HEK293 cells, anti-human Ig-APC secondary
T5 construct: EGFP fusion expressed on transfected HEK293 cells; also called human OX40
T5 sequence (looked up): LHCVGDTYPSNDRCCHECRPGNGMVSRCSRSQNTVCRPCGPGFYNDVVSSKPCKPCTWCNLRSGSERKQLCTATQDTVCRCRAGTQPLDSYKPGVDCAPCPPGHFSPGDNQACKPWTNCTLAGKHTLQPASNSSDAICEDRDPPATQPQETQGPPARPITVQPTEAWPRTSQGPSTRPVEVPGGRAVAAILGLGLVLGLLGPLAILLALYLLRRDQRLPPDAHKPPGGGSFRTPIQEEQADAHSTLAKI
Method: as §2

hCD27-muFc [7] = target: T1, hCD27-muFc; assay: ELISA, plate coated with hCD27-muFc, Test 1
Method: as §1

[8] = target: T5, hOX40-EGFP on HEK293 cells; assay: FACS on hOX40-EGFP HEK293 cells
Method: as §2

[9] = target: T2, hCD137-EGFP on HEK293 cells; assay: FACS on hCD137-EGFP HEK293 cells
Method: as §2

B1: m2F11 (antibody, human IgG1, V domains shown)
VH: EVQLQESGGDLVKPGGSLKLSCAASGFTFSSYAMSWVRQTPEKRLEWVAIIGDGDTYTYYPDSVKGRFTVSRDNAKNNLYLQMSHLKSEDTAMYYCVRTRGGPFDYWGQGTTLTVSS
VL: DIVLTQTPALMSASPGEKVTMTCSASSSVGSMHWYQQKSGTSPKRWIYDTSKLASGVPARFSGSGSGTSYSLTISSMEAEDAATYYCQQWSSIPPTFGAGTTLELK
notes: Chimeric antibody: mouse VH/VL on human IgG1 / human kappa constant regions; Parent of the humanized antibodies; also called clone 2F11; not shown: human IgG1 constant region, UniProt P01857
hCD27-muFc [1]
  EC50: 0.0279 µg/mL
[2]
  binding result: no binding (tested: 10 µg/ml)
[3]
  LogEC50: 0.417 Log10(ug/ml)
hCD27-muFc [4]
  Kd: 0.835 nM
  koff: 0.000108 s⁻¹
  kon: 130000 M⁻¹ s⁻¹
[5]
  binding result: no binding (tested: 10 µg/ml)
[6]
  binding result: no binding (tested: 10 µg/ml)
hCD27-muFc [7]
  EC50: 0.0315 µg/mL

B2: m2E7 (antibody, human IgG1, V domains shown)
VH: EVQLQESGPELKKPGETVKISCKASGYTFTTYGMSWVKQAPGKGLQWMGWINTNSGVPTYVEDFKGRFAFSLESSANTAYLQINNLKNEDTAIYFCTREGDALDYWGQGTSVTVSS
VL: DIVMTQSTAIMSASPGEKVTMTCSASSSVSYMHWYQQKSGTSPRRWIYDTSRLASGVPARFSGSGSGTSYSLTISSMEAEDAATYYCQQWSNTPPFTFGAGTKLELK
notes: also called clone 2E7; not shown: human IgG1 constant region, UniProt P01857
[2]
  binding result: no binding (tested: 10 µg/ml)
[5]
  binding result: no binding (tested: 10 µg/ml)
[6]
  binding result: no binding (tested: 10 µg/ml)

B3: m2G3 (antibody, human IgG1, V domains shown)
VH: EVKLQESGGGLVKPGGSLKLSCAASGFTFSSFAMSWIRQTPEKRLEWVAAISDGGTYTYYPNNVKGRFTISRDDAKNNLYLQMSHLKSEDTAMYYCVRNRGGPFDYWGQGTTLTVSS
VL: B1 VL with T7S, L10I, G30S, S31Y, H33N, A59V, S91N, I93N, T102K
notes: Chimeric antibody: mouse VH/VL on human IgG1 / human kappa constant regions; also called clone 2G3; not shown: human IgG1 constant region, UniProt P01857
[2]
  binding result: no binding (tested: 10 µg/ml)
[5]
  binding result: no binding (tested: 10 µg/ml)
[6]
  binding result: no binding (tested: 10 µg/ml)

B4: m3B8 (antibody, human IgG1, V domains shown)
VH: QVQLQESGPGLVAPSQSLSITCTVSGFSLTNYAVSWVRQPPGKGLEWLGVIWGDGTTNYHSALISRLIISKDNSKSQVFLKLNSLQTDDTATYYCAKEGDYGDYVGWFAYWGQGTLVTVSA
VL: DIVLTQSPASLAVSLGQRATISCRASESVEYYGTSLMQWYQQKPGQPPKLLIYAASNVESGVPARFSGSGSGTDFSLNIHPVEEDDFAMYFCQQSRKIPYTFGGGTKLEIK
notes: Chimeric antibody: mouse VH/VL on human IgG1 / human kappa constant regions; also called clone 3B8; not shown: human IgG1 constant region, UniProt P01857
[2]
  binding result: no binding (tested: 10 µg/ml)
[5]
  binding result: no binding (tested: 10 µg/ml)
[6]
  binding result: no binding (tested: 10 µg/ml)

B5: m1A8 (antibody, human IgG1, V domains shown)
VH: EVQLQESGAELVKPGASVKLSCKASGYSFTSSWMHWVKQRPGQGLEWIGMIHPDSGFTNYNEKFKSKATLTVDKSSSTAYMRLSSLTSEDSAVYYCARTSYYDTSYTSMDFWGQGNSVTVSS
VL: DIVLTQSPAILSVSPGERVSFSCRASQSIGTSIHWYQQRTNGSPRLLIKYASESISGIPSRFSGSGSGTDFTLSINSVESEDIADYYCQQSNSWPLTFGAGTKLELK
notes: Chimeric antibody: mouse VH/VL on human IgG1 / human kappa constant regions; also called clone 1A8; not shown: human IgG1 constant region, UniProt P01857
[8]
  binding result: no binding (tested: 10 µg/ml)
[9]
  binding result: no binding (tested: 10 µg/ml)
[5]
  binding result: no binding (tested: 10 µg/ml)

B6: m4G1 (antibody, human IgG1, V domains shown)
VH: QVQLQQSGPELVKPGASVKISCKASGYSFTAYNMNWVKQSKGKSLEWIGLINPNYATTSYNQKFKDKATLTVDQSSSTAYMQLNSLTSEDSAVYYCAYYSYYSYGGGYAMDYWGQGTSVTVSS
VL: B5 VL with V3L, T72I, L96W, A100G, K103R, L106I
notes: Chimeric antibody: mouse VH/VL on human IgG1 / human kappa constant regions; also called clone 4G1; not shown: human IgG1 constant region, UniProt P01857
[8]
  binding result: no binding (tested: 10 µg/ml)
[9]
  binding result: no binding (tested: 10 µg/ml)
[5]
  binding result: no binding (tested: 10 µg/ml)

B7: m2B8 (antibody, human IgG1, V domains shown)
VH: EVQLQESGGGLVQPKGSLKLSCAASGFNFNTYTMNWVRQAPGKGLEWVARIRYKSNNYATYYADSVKDRFTISRDDSESILYLQMNNLRTDDTAIYFCVRELGLWYFDVWGAGTTVTVSS
VL: DIVMTQSPSYLAASPGETITINCRASKSISKYLAWYREKPGKTNNLLIYSGSTLQSGIPSRFSGSGSGTDFTLTISSLEPEDFAMYYCQQHNEYPLTFGAGTKLELK
notes: Chimeric antibody: mouse VH/VL on human IgG1 / human kappa constant regions; also called clone 2B8; not shown: human IgG1 constant region, UniProt P01857
[8]
  binding result: no binding (tested: 10 µg/ml)
[9]
  binding result: no binding (tested: 10 µg/ml)
[5]
  binding result: no binding (tested: 10 µg/ml)

B8: m4H3 (antibody, human IgG1, V domains shown)
VH: QVQLQQSGPELVKPGASVKISCKASGYSFTAYNINWVKQTNGKSLEWIGIINPNYGTTSYNQKFKGKATLTVDQSSSTAYMQLNSLTSEDSAVYYCARRNGDYVGYAMDSWGQGTSVTVSS
VL: B5 VL with I33M, T40K, S91T, S93N, L96W, A100G, L106F
notes: Chimeric antibody: mouse VH/VL on human IgG1 / human kappa constant regions; also called clone 4H3; not shown: human IgG1 constant region, UniProt P01857
[8]
  binding result: no binding (tested: 10 µg/ml)
[9]
  binding result: no binding (tested: 10 µg/ml)
[5]
  binding result: no binding (tested: 10 µg/ml)
